In paper doi:10.1101/2024.05.10.593535, “Single residue changes to the histone core catalyze neofunctionalization and impose fitness trade-offs” (bioRxiv, 2024):

Target: T1, S. pombe 14xHis-Spt6(282-1159) (S. pombe, UniProt Q09915 282-1159)
T1 construct: transcription elongation factor Spt6, S. pombe, truncated version corresponding to residues 282-1159; Held on Ni-NTA resin by the 14xHis tag in the pulldowns; also called PZH_670; source: E. coli BL21(DE3), purified (Ni Sepharose, dialysis)
T1 sequence (looked up): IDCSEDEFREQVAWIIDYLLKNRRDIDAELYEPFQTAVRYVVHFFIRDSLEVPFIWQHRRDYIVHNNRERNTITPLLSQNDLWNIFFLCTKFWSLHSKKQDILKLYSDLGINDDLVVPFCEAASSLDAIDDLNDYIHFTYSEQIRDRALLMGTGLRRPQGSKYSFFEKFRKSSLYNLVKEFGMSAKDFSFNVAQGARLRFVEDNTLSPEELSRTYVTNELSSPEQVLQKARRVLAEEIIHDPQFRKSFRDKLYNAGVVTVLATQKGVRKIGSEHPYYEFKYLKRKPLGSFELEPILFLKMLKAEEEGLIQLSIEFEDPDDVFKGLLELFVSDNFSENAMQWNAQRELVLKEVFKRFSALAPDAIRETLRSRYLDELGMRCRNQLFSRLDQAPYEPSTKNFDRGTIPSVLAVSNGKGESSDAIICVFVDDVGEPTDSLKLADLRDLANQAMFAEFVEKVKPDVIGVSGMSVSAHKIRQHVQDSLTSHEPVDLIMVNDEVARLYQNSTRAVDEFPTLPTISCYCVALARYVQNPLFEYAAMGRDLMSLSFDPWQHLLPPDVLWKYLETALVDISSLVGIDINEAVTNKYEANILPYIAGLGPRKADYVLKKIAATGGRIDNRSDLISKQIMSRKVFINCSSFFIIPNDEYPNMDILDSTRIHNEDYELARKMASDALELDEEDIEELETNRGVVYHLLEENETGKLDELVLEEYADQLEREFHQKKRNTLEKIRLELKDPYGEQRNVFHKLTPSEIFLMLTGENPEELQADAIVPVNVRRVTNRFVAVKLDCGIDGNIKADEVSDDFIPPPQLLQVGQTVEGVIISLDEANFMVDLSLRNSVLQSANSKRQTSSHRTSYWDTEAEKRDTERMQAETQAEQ
Assay: pull-down; 14xHis-Spt6(282-1159) bound to Ni-NTA resin as bait, recombinant histone fusion as prey; 50 mM Tris pH 8, 150 mM NaCl, 2.5 mM DTT, 0.1% tween-20, RT; washing under physiological salt (150 mM NaCl) or stringent (300 mM NaCl) conditions; colloidal Coomassie staining
Conditions: both partners purified

- binding result: binds
B1: S. pombe Pht1 (H2A.Z), full-length N-terminal GST fusion (natural protein)
chain: not shown
notes: histone H2A.Z (Pht1), S. pombe, full length; also called full-length Pht1
